Publication PMC7175280

Target: Mus musculus inward rectifier K+ (Kir) channel 3.1 - Paraburkholderia xenovorans KirBac1.3 chimera (Mus musculus | Paraburkholderia xenovorans (Burkholderia xenovorans LB400)) (UniProt P63250)
Experiment: SEC; HiLoad 16/600 Superdex 200 in 20 mM HEPES pH 7.5, 150 mM KCl, 5 mM DDM, 2 mM DTT, 1 mM EDTA, 0.02% NaN3; protein loaded at ~3 mg/mL; tetramer fractions collected

stoichiometry N: 4
Substance: Mus musculus inward rectifier K+ (Kir) channel 3.1 - Paraburkholderia xenovorans KirBac1.3 chimera (from UniProt P63250 181-371; P63250 181-371)
